According to paper PMC2115487:

Target: TGF-beta receptor(s) on CCL64 mink lung epithelial cells (mink (endogenous in CCL64))
Test: radioligand binding

Human TGF-beta (type 1), 125I-labeled (ligand)
Kd: 8.3 pM
increase of specific binding with 100 ug/ml heparin over no heparin: 46%
specific binding, cpm of the 100% value (without heparin): 325 cpm
